The values below come from publication PMC9878614.

As usually defined, the Kd is the equilibrium constant for the complex coming apart.

Test [1] concerns the target F-actin (filamentous actin) (human (endogenous in HEK293)) (UniProt P60709). The experiment in a line: single-molecule localisation microscopy (direct-LIVE-PAINT, TIRF); live HEK293 cells transiently transfected with LifeAct-14-EGFP plasmid (4 ng or 20 ng DNA), imaged 24 h later at 37°C; 488 nm excitation, 50 ms exposure, 2000 frames; transient binding events read as single-molecule localisations.

The next test addresses F-actin (UniProt P68133). To be noted: cited from earlier work.

As to “LifeAct-14-EGFP (from UniProt Q08641 1-14) (peptide)”, in test [1], the localizations/s (4 ng DNA transfected) (localizations/s) was determined as 540 and the localizations/s (20 ng DNA transfected) (localizations/s) amounted to 1860.
In the case of LifeAct-14 1-14 (from UniProt Q08641), the equilibrium dissociation constant (Kd) with F-actin was 1200 nM.
